Results: US20200407462A1 (MINERVA BIOTECHNOLOGIES, published 2020)
Changes are numbered by the printed parent chain.

T1: N-10 peptide (N-10 PSMGFR)
T1 construct: also called PSMGFR N-10
T1 peptide: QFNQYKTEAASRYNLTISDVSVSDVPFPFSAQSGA

T2: PSMGFR peptide (Primary Sequence of the MUC1 Growth Factor Receptor)
T2 peptide: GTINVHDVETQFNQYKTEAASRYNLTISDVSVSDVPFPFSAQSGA

T3: PSMGFR N+20/C-27 peptide
T3 construct: also called N+20/C-27 PSMGFR
T3 peptide: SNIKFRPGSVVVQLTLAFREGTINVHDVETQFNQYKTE

T4: PSMGFR N+9/C-9 peptide
T4 peptide: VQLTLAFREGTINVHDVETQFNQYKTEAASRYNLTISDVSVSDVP

T5: C-10 peptide (C-10 PSMGFR)
T5 construct: also called PSMGFR C-10
T5 peptide: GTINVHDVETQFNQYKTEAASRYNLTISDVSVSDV

B1: 25E6 monoclonal anti-MUC1* antibody (antibody, V domains shown)
VH: EVQLVESGGDLVKPGGSLKLSCAASGFTFSSYGMSWVRQTPDKRLEWVATISNGGRHTFYPDSVKGRFTISRDNAKNTLYLQMSSLKSEDTAMYLCVRQTGTEGWFAYWGQGTLVTVSA
VL: not shown
notes: Immunogen PSMGFR peptide; also called Antibody 25E6
B2: 31A1 monoclonal anti-MUC1* antibody (antibody, V domains shown)
VH: QVQLQQSGAELAKPGASVKMSCKASGYTFTSYWMHWVKQRPGQGLEWIGYINPSTGYTEYNQKFKDKATLTADKSSSTAYMQLSSLTSEDSAVYYCARAYIDYWGQGTTLTVSS
VL: DVLMTQTPLSLPVSLGDQASFSCRSSQSIVHSNGNTYLEWYLQKPGQSPKLLIYKVSNRFSGVPDRFSGSGSGTDFTLKINRVEAEDLGVYYCFQVSHFPWTFGGGTKLEIK
notes: Immunogen PSMGFR N+20/C-27 peptide; also called Antibody 31A1
B3: 39H5 monoclonal anti-MUC1* antibody (antibody, V domains shown)
VH: QIQLVQSGPELKKPGETVKISCKASGYTFTNYGMNWVKQAPGKGLKWMGWINTYTGEPTYVGDFKGRFAFSLETSASTAYLQINNLKNEDTATYFCVRGIHGYVDYWGQGTTLTVSS
VL: B2 VL with F21I, S32R, N81S, V96G, F99L
notes: Immunogen PSMGFR N+9/C-9 peptide; also called Antibody 39H5
B4: 20A10 monoclonal anti-MUC1* antibody (antibody, V domains shown)
VH: EVMLVESGGGLVKPGGSLKLSCAASGFTFSTYAMSWIRQTPEKRLEWVASIGRAGSTYYSDSVKGRFTISRDNVRNILYLQMSSLRSEDTAMYYCARGPIYNDYDEFAYWGQGTLVTVSA
VL: NIMMTQSPSSLAVSAGEKVTMSCKSSQSVLYSSNQKNYLAWYQQKPGQSPKLLIYWASTRESGVPDRFTGSGSGTDFTLTISSVQAEDLAVYYCHQYLSSLTFGAGTKLELK
notes: Immunogen PSMGFR peptide; also called Antibody 20A10
B5: 18B4 monoclonal anti-MUC1* antibody (antibody, V domains shown)
VH: EVKLEESGGGLVQPGGSMKLSCAASGFTFNDAWMDWVRQSPEKGLEWVAEIRSTANIHTTYYAESVQGRFTISRDDSKSSVYLQMNSLRAEDTGIYYCTPLLYGFAYWGQGTLVTVSA
VL: DVVMTQSPLSLPVSLGDQASISCRTSQSLVHSNGNTYLHWHLQKPGQSPKVLIYKVSSRFSGVPDRFSGSGSGTDFTLKISRVEAEDLGVYFCSQNTHVPYTFGGGTKLEIK
notes: Immunogen PSMGFR peptide; also called Antibody 18B4
B6: 1E4 monoclonal anti-MUC1* antibody (antibody, V domains shown)
VH: QVQLQQSGAELVRPGSSVKISCKASGYAFSTYWMNWVKQRPGQGLEWIGQIYPGDSDTNYNGKFKGKATLTADKSSNTAYMQLSSLTSEDSAVFFCARGNHASMDYWGQGTSVTVSS
VL: B5 VL with S7T, T25S, H41Y, V51L, S58N, N96K, Y101W
notes: Immunogen PSMGFR N+20/C-27 peptide; also called Antibody 1E4
B7: 32C1 monoclonal anti-MUC1* antibody (antibody, V domains shown)
VH: EVKLEESGGGLVQSGGSMKLSCVASGFTFSNYWMNWVRQSPEKGLEWVAEIRLKSNNYAIHYAESVKGRFTISRDDSKSSVYLQMNNLRAEDTGIYYCTRVPGLDAYWGQGTLVTVSA
VL: B5 VL with S7T, T25S, H41Y, V51L, S58N, R82S, N96I, K108N
notes: Immunogen PSMGFR N+20/C-27 peptide; also called Antibody 32C1
B8: 29H1 monoclonal anti-MUC1* antibody (antibody, V domains shown)
VH: B5 VH with N30S, T54K, N56T, I57N, T59A, Q67K
VL: DVVMTQTPLSLPVSLGDQASISCRSGQSLVHSNGHTYLHWYLQKPGQSPRLLIYKVSNRFSGVPDRFSGSGSRADFTLKISRVEAEDLGVYFCSQTTHVPWTFGGGTKLEIK
notes: Immunogen PSMGFR N+20/C-27 peptide; also called Antibody 29H1
B9: 3C5 monoclonal anti-MUC1* antibody (antibody, V domains shown)
VH: QIQLVQSGPELKKPGETVKISCKASGYTFTNYGMNWVKQAPGKGLKWMGWINTYTGKPTYADDFKGRFAFSLETSASTAYLQINNLKNEDTATYFCARGGLDGYYGYWGQGTTLTVSS
VL: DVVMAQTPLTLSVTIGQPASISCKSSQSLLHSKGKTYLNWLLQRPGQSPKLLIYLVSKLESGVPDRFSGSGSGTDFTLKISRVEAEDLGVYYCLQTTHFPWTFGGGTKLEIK
notes: Immunogen PSMGFR N+9/C-9 peptide; also called Antibody 3C5
B10: 18G12 monoclonal anti-MUC1* antibody (antibody, V domains shown)
VH: QVQLQQSGAELVKPGASVKLSCKASGYTFTGYFLYWVKQRPGQGLEWIGGINPDNGGIDFNEKFRNKATLTVDKSSSTAYMQLSSLTSEDSAVYYCTLLIGNYWGQGTTLTVSS
VL: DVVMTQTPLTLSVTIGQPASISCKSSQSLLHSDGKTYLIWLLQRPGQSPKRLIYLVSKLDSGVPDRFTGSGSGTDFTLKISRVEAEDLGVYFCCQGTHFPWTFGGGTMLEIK
notes: Immunogen PSMGFR peptide; also called Antibody 18G12
B11: 28F9 monoclonal anti-MUC1* antibody (antibody, V domains shown)
VH: B10 VH with S7P, K13Q, Q43H, N52H, D54S, G57D, I58T, R65K, K74I, N102V
VL: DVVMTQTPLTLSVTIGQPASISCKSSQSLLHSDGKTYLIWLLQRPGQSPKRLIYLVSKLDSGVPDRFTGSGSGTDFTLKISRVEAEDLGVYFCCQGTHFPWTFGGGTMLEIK
notes: Anti-PSMGFR antibody; also called Antibody 28F9

Experiments:
[1] = target: T1, N-10 peptide (N-10 PSMGFR); experiment: peptide binding, told in legend
[2] = target: T2, PSMGFR peptide (Primary Sequence of the …); experiment: selection of clones on the immunizing peptide
PSMGFR N+20/C-27 peptide = target: T3, PSMGFR N+20/C-27 peptide; experiment: selection of clones on the immunizing peptide
PSMGFR N+9/C-9 peptide = target: T4, PSMGFR N+9/C-9 peptide; experiment: selection of clones on the immunizing peptide
[3] = target: T5, C-10 peptide (C-10 PSMGFR); experiment: binding to peptides (ELISA, FIG. 39)
Protocol: (§1) All monoclonal antibodies were first selected based on their ability to bind to the immunizing peptide. To further elucidate the epitope within that peptide to which the antibody binds, antibodies were tested for their ability to bind to the PSMGFR peptide, the N−10 peptide or the C−10 peptide.

[4] = target: T1, N-10 peptide (N-10 PSMGFR); experiment: peptide binding, told in text
[5] = target: T5, C-10 peptide (C-10 PSMGFR); experiment: ELISA on peptides
[6] = target: T1, N-10 peptide (N-10 PSMGFR); experiment: ELISA on peptides (FIG. 39)
Protocol: as §1

Binder	binding result [2]	binding result (PSMGFR N+20/C-27 peptide)	other results
B1	binds	–	binding result [1]: binds
B2	–	binds	–
B3	–	–	binding result (PSMGFR N+9/C-9 peptide): binds
B4	binds	–	binding result [3]: no binding; binding result [4]: binds
B5	binds	–	binding result [5]: binds; binding result [6]: no binding
B6	–	binds	–
B7	–	binds	–
B8	–	binds	–
B9	–	–	binding result (PSMGFR N+9/C-9 peptide): binds
B10	binds	–	binding result [5]: binds
B11	binds	–	binding result [5]: binds
